Measured values published in patent US20250019427A1 (BYOMASS, published 2025).

What was measured:
GDF15 = target: T1, GDF15 (Homo sapiens (Human), UniProt Q99988 30-308); test: cell-based or functional assay
T1 sequence: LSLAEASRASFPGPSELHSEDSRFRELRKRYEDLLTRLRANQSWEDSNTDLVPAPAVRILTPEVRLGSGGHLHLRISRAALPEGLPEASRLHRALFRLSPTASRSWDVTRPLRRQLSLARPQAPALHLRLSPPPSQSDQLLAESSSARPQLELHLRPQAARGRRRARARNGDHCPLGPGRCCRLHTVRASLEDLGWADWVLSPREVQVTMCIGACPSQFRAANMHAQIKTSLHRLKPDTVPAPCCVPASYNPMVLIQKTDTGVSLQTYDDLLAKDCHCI

GDNF = target: T2, GDNF (UniProt P39905 78-211); test: Octet BLI, IgG on tip, avid
T2 sequence (looked up): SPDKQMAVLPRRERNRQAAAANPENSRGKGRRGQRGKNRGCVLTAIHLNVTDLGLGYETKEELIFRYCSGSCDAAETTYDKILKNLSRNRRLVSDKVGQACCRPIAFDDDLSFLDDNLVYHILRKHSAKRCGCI

GDF8 = GDF8 (UniProt O14793 267-375); test: Octet BLI, IgG on tip, avid
GDF11 = target: T3, GDF11 (UniProt O95390 299-407); test: Octet BLI, IgG on tip, avid
T3 construct: Also the GDF-11 ligand of the ActRIIB/SMAD reporter assay
T3 sequence (O95390 299-407 limits assumed): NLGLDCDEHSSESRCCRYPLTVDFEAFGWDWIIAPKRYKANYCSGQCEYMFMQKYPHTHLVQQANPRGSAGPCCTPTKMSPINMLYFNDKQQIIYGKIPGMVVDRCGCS

Human Activin A Fc = target: T4, Human Activin A Fc (human, UniProt P08476 311-426); test: Octet BLI, IgG on tip, avid
T4 sequence (looked up): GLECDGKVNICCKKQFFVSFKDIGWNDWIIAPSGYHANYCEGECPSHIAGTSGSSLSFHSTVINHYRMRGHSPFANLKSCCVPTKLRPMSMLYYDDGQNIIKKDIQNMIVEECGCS

Human Activin B = target: T5, Human Activin B (human, UniProt P09529 293-407); test: Octet BLI, IgG on tip, avid
T5 construct: Also used for the Activin B ligand of the ActRIIB/SMAD reporter assay, where the species is not restated
T5 sequence (looked up): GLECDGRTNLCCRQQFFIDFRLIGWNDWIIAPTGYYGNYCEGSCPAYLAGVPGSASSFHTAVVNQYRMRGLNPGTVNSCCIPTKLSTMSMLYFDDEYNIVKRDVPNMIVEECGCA

GDF10 = target: T6, GDF10 (UniProt P55107 369-478); test: Octet BLI, IgG on tip, avid; P.F. = binder with poor fit
T6 sequence (looked up): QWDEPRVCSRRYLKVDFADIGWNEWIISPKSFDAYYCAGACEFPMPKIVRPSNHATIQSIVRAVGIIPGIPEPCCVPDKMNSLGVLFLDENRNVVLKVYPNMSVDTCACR

Human BMP9 = target: T7, Human BMP9 (human, UniProt Q9UK05 320-429); test: as above
T7 sequence (looked up): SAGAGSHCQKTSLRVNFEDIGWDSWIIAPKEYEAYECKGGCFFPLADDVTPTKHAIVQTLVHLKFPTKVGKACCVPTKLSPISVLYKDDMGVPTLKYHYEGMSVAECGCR

Human BMP10 = target: T8, Human BMP10 (human, UniProt O95393 317-424); test: as above
T8 sequence (looked up): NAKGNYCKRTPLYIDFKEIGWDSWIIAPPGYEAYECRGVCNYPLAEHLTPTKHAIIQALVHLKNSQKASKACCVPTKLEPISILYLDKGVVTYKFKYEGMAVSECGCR

- GDF15 - GFRAL RET pERK IC50 (pM) (GDF15): 102 pM
- GDF15 - GFRAL-RET Luciferase IC50 (pM) (GDF15): 75 pM
- binding result (GDNF): no binding (tested: 100 nM)
- binding result (GDF8): no binding (tested: 100 nM)
- binding result (GDF11): no binding (tested: 100 nM)
- Kd (Human Activin A Fc): 7.34 nM
- binding result (Human Activin B): no binding (tested: 100 nM)
- binding result (GDF10): binds
- binding result (Human BMP9): binds
- binding result (Human BMP10): binds
B1: Clone A IgG (antibody, V domains shown)
VH: QVQLQESGPGLVKPSQTLSLTCTVSGGSITSGGSYWSWIRQHPGKGLEWIGAIVYSGSTYYNPSLKSRVTISVDTSKNQFSLKLSSVTAADTAVYYCARGVEYQHFDYWGQGTLVTVSS
VL: not shown
notes: IgG format
